Reference: the supplement of paper PMC9170038

Legend:
MS2 coat protein [1] = assay: apparent KD of MS2 coat protein, switch OFF state (with FMN for OFF switches, without FMN for ON switches); designed switch direction (-1 OFF switch, 1 ON switch): -1; higher = weaker reporter binding; conditions: FMN input: 0 or 200 uM; Eterna round: R93 (includes R88 designs)
How it was run: (§1)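 Designed RNA switches were made by on-chip transcription from Illumina sequencing clusters and then titrated with SNAP-549-labelled MS2 coat protein. Twofold steps ran from 0.7 or 1.5 nM to 3 µM, each lasting 0.8–1.5 h early and 10–20 min late, in 100 mM Tris-HCl pH 7.5, 80 mM KCl, 4 mM MgCl2, without or with constant ligand. Apparent KD is the per-design median of normalised cluster binding-curve fits.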

MS2 coat protein [2] = assay: apparent KD of MS2 coat protein, switch ON state; designed switch direction (-1 OFF switch, 1 ON switch): -1; higher = weaker reporter binding; conditions: FMN input: 0 or 200 uM; Eterna round: R93 (includes R88 designs)
How it was run: as §1

Sequence | apparent KD of MS2 coat protein (MS2 coat protein [1]) | apparent KD of MS2 coat protein (MS2 coat protein [2])
AAGAAGUGAGGAUAUGUCUGUGCGAAAAAAAAAAAGUGCAGACAGAAGGCACAUGAGGAUCACCCAUGUGGGAA [Florian 65% 6] | 87.2 nM | 76.6 nM
AAGAUCAGAGGAUAUACAUAAGGUGAUGGAGACAUCGCCAAACAUGAGGAUCACCCAUGUAGAAGGCUGAUCAA [Mat - Exclusion 2 - JL mod - D62] | 49.7 nM | 36.8 nM
AAGCUGGUAGGAUAUACUAGGGCAACUAAUGCACCGAUAGGACAUGAGGAUCACCCAUGUAGAAGGGCCAGAAA [JR_Exc002_Sub404] | 137 nM | 65.5 nM
AAGGAUCGAGGAUAUACAUAGAUACAGAUACAUGUAGAACUACAUGAGGAUCACCCAUGUAGAAGGCGAUCAUA [AJ 30] | 56.3 nM | 23.9 nM
AAGGGACAUGAGGAUCACCCAUGUCAGGAUAUGCAAACAACAAACAACAAACAACAAAGCAGAAGGGACAAAAA [63%, Olong, 5] | 24.1 nM | 29.1 nM
AAGGUACGAGGAUAUACAUAGAUACAGACACAUGUACAUGUACAUGAGGAUCACCCAUGUAGAAGGCGUAUAUA [AJ 19] | 69.7 nM | 86.1 nM
AAUAAGUGAGGAUAUACUAAAGAAAUGAAAAGGGAUAAAGAACAUGAGGAUCACCCAUGUAGAAGGCACAAUAA ['Aper-'Anat] | 37.2 nM | 31.9 nM
AAUAAGUGAGGAUAUCGAAGACUGUCGAAAAGACAGUCGAACGAGAAGGCACAUGAGGAUCACCCAUGUGAGGG [Mat - Exaclusion 4 - Eli mod - D69] | 107 nM | 130 nM
AAUAAGUGAGGAUAUGGAAAUAGUAGAUAAGAUUCCCUAAACCAGAAGGCACAUGAGGAUCACCCAUGUAAAUA [JR_Exc004_Sub005] | 26.4 nM | 38.7 nM
AAUAAGUGAGGAUAUGUGAAUAGAAGAUAAGAUACCCAAAAACAGAAGGCACAUGAGGAUCACCCAUGUAAAUA [JR_Exc004_Sub009] | 24.3 nM | 33.7 nM
AAUAGUGGAGGAUAUACAUGAGGAUCACCCAUGUAGAAAGGAAGUGUAUAUAUGGCGUGUAGAAGGCCAAAUAA [Mai Tai 3 ala Nando] | 30.3 nM | 32.3 nM
AAUGGUGCAGGAUAUACAUGAGGAUCACCCAUGUACAUCAGACAUAUGGUCGAAGCAUGUAGAAGGGCACCAAA [Ex 3May 56] | 183 nM | 145 nM
AAUUAGGUAGGAUAUACAUGAGGAUCACCCAUGUAGGAAAAAAGCUACGAAAAAGAAUGUAGAAGGACCUAAAA [Ex 3 Sunny] | 18.7 nM | 13.2 nM
ACAUCUAGAGGAUAUACAUGGAAAAAAAAAAAAAAAAAACUACAUGAGGAUCACCCAUGUAGAAGGCUAGAUGA [Ex2 Design 192: Random 12] | 35.7 nM | 40.4 nM
ACCAGACAUGAGGAUCACCCAUGUCAGGAUAUGCAUCUUAGGAAAAAAAAACUAAGAUGCAGAAGGGACAAGGG [Design 5: Super Stable - A-U mutation] | 20.1 nM | 16 nM
ACUUGACAUGAGGAUCACCCAUGUCAGGAUAUAGUAGGACAAAUAAAUAAAAGUUCUACUAGAAGGGAUAUGGG [Design 20: G-U+ 4] | 36.5 nM | 20.7 nM
AGAAAACAUGAGGAUCACCCAUGUCAGGAUAUCCAAAUAAAAAUAAAAUAAAAUAAAAGGAGAAGGGACAAAAG [May 1] | 66.9 nM | 49.2 nM
AGAAAACAUGAGGAUCACCCAUGUCAGGAUAUCUAAAAGAAAAGAAAAGAAAGAAGAAGGAGAAGGGACAAGAA [Djoser] | 21.8 nM | 21.2 nM
AGAAACGUAGGAUAUACAUGAGGAUCACCCAUGUAAAGAAAGAAGGGAGCCACAAGAAGUAGAAGGACGAAGAA [JR_Exc003_Sub004] | 131 nM | 33.4 nM
AGAAAGCGAGGAUAUGCACGGGAAGAAAGAAGAGAGAAAAAACAUGAGGAUCACCCAUGUAGAAGGUGUAUAAA [JR_Exc002_Sub1713] | 25.8 nM | 38.4 nM

Sequence | apparent KD of MS2 coat protein (MS2 coat protein [1]) | apparent KD of MS2 coat protein (MS2 coat protein [2])
AGAUCAUCAGGAUAUACAUAGGUGAAAAAAGUAAAUCCACUACAUGAGGAUCACCCAUGUAGAAGGGAUGAUCA [Ex2 Design 176: Random 4] | 30.3 nM | 39.1 nM
AGCUAGUCAGGAUAUACAAAGAUGUCGAAAGACGUCAAGGGACAUGAGGAUCACCCAUGUAGAAGGGACUAGCA [Mod of Janderson's WEB Mod v.3] | 197 nM | 56.2 nM
AGCUAGUCAGGAUAUACGAAAAUGUCAGAAGCUGUGAAGGGACAUGAGGAUCACCCAUGUAGAAGGGACUAGCA [Diamond 38] | 218 nM | 69.1 nM
AGCUAGUCAGGAUAUACGAACAGGUCAAAAGACGUAAGGGAACAUGAGGAUCACCCAUGUAGAAGGGACUAGCA [Diamond 52] | 84.3 nM | 32.9 nM
AGCUAGUCAGGAUAUACGAACAUGUCAAAAGACGAGAAGGGACAUGAGGAUCACCCAUGUAGAAGGGACUAGCA [Diamond 21] | 198 nM | 87.5 nM
AGCUAGUCAGGAUAUACGAACAUGUCAAAAGACGUGAGAGAACAUGAGGAUCACCCAUGUAGAAGGGACUAGCA [Mat - Exclusion 2 - JL-Eli mod - D47] | 13.1 nM | 18.7 nM
AGCUAGUCAGGAUAUACGAGAAUGAAAGAAGACGUGAAGGGACAUGAGGAUCACCCAUGUAGAAGGGACUAGCA [Diamond 25] | 80.3 nM | 36.1 nM
AGCUAGUCAGGAUAUGCGAAUAUGUCAAAAGACGUGAAGGGACAUGAGGAUCACCCAUGUAGAAGGGACUAGCA [Diamond 3] | 36.5 nM | 32.4 nM
AGCUUCAGAGGAUAUACUUGAGUGAUAAAAGUCUGAUAACUACAUGAGGAUCACCCAUGUAGAAGGCUGUAGCA [Ex2 Design 168: Sub-opt 32] | 46 nM | 19.1 nM
AGGAAACAUGAGGAUCACCCAUGUAAGGAUAUCAGAAAGAAAAGAAAAGAAAGAAGAAUGAGAAGGUACAAGAA [Horus Bird] | 34 nM | 29.1 nM
AGGAAACAUGAGGAUCACCCAUGUUAGGAUAUGAACGAAAAUAAAUAAAAAUAAAAGUUCAGAAGGGACAAAAA [66%, Wbt, 19] | 39.6 nM | 38.4 nM
AGGGAACAUGAGGAUCACCCAUGUGAGGAUAUACAAAAGAAAAGAAAAGAAAGAAGAAGUAGAAGGUACAAGAA [Neferka] | 43.9 nM | 23.9 nM
AGGGAACAUGAGGAUCACCCAUGUGAGGAUAUUCAAAAGAAAAGAAAAGAAAGAAGAAGAAGAAGGUACAAGAA [Neferkare Pepi II] | 36.9 nM | 42.9 nM
AGGUAGUCAGGAUAUACAAACAUGUCAAAAGACGUGAAAAAACAUGAGGAUCACCCAUGUAGAAGGGACUACCA [Mat - Exclusion 2 - JL mod - D21] | 16.3 nM | 18 nM
AGUCAGAGAGGAUAUACAUGGGAAAAAAAAGUAAGAUCCCUACAUGAGGAUCACCCAUGUAGAAGGCUCUGACA [Ex2 Design 139: Sub-opt 3] | 20.2 nM | 22.6 nM
AGUCAUACAGGAUAUACAUGAGGAUCACCCAUGUAAAUCCUAAAAAGAAAAAACUCAUGUAGAAGGGUAUGACA [EX3 223: Super Stable 23] | 39.2 nM | 16.1 nM
AGUCGGCGAGGAUAUACAUGAGGAUCACCCAUGUGAGAGAAAAAAGUGAGAAAGAAAUGUAGAAGGCGCUGACA [JL Lego Mod 1] | 36.8 nM | 90.8 nM
AGUGAGUGAGGAUAUGACUGAAGAAUAAAAGAAAUAACAAGUCAGAAGGCACAUGAGGAUCACCCAUGUACACA [May 60] | 25.6 nM | 28.8 nM
AGUUAGCGAGGAUAUACAUGAGGAUCACCCAUGUGAGAGAAAAAAGUGAGAAAGAAAAGUAGAAGGCGCUAACA [Moding Norbert Elias (73)] | 119 nM | 42.3 nM
AGUUGGCGAGGAUAUACAUGAGGAUCACCCAUGUAAGAGUAAAGAGUGAGAAAGAGAAGUAGAAGGCGCUGACA [Ruby 57] | 247 nM | 53 nM
